Data taken from PMC5934647, “Targeting IS608 transposon integration to highly specific sequences by structure-based transposon engineering”.

Molecular target: T1, IS608 TnpA transposase (Helicobacter pylori (IS608), UniProt Q933Z0 1-155)
T1 sequence: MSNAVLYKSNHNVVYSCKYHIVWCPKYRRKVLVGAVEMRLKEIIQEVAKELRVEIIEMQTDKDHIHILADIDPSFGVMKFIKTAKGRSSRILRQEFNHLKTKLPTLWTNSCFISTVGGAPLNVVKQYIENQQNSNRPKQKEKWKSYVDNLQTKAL
Experiment: X-ray crystallography (2.6 A); Ca2+; 2 LE29 and 2 T6' per TnpA dimer; pre-cleavage target capture complex; Crystal complex: TnpA:LE29:T6' 1:1:1.3, 20 mM Tris-HCl pH 7.5, 0.2 M NaCl, 0.2 mM TCEP, 2 mM EDTA; crystallized with 14.6% PEG 3350, 0.19 M calcium acetate; cleavage and integration assays are activity read-outs and not listed
Details: protein: recombinant; chain copies: 2; LE29 imperfect hairpin; GL of LE29 pairs with TTAC of T6', A+42 and T+43 form base triplets; 2 copies of each strand per TnpA dimer

B1: LE29 hairpin + T6' target oligo (structured_DNA)
DNA 1: AAAGCCCCTAGCTTTTAGCTATGGGGATA
DNA 2: ATTACC
**Q.** Does B1 bind?
**A.** Result: binds
